This passage reports Ki results from patent US20230265151A1, “GIP/GLP1 CO-AGONIST COMPOUNDS” (priority 2020, published 2023).

Residue numbers refer to the chain shown, from its start.

The labels stand for the following.
T1: human GIP receptor (human, UniProt P48546 22-466)
T1 construct: whole, on cells; also called hGIPR; human glucose-dependent insulinotropic polypeptide receptor
T1 sequence (looked up): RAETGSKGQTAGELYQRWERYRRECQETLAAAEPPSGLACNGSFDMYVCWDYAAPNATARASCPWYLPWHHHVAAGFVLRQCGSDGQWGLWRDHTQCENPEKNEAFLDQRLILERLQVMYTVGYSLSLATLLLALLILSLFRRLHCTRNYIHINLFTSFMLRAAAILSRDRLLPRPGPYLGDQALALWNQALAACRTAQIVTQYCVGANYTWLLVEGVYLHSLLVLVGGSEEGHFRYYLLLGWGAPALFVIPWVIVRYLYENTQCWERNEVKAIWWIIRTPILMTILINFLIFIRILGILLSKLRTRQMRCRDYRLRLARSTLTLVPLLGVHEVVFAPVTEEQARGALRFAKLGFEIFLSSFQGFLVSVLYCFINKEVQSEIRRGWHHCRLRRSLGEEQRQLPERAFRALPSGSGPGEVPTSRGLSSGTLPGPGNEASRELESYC

B1: Y-Aib-EGT-αMeF-TSD-4Pal-SI-αMeL-LD-Orn-K((2-[2-(2-Amino-ethoxy)-ethoxy]-acetyl)2-(γ-Glu)-CO-(CH2)12-CO2H)AQ-Aib-EFI-(D-Glu)-αMeY-LIEGGK((2-[2-(2-Amino-ethoxy)-e … (peptide)
peptide: YXEGTXTSDXSIXLDXKAQXEFIXXLIEGGKSSGAPPPS
modifications: Aib2, αMeF6, 4Pal10, αMeL13, Orn16, K17(Z1), Aib20, D-Glu24, αMeY25, K31(Z1), C-term NH2; Z1=AEEA2-(γ-Glu)-CO-(CH2)12-CO2H
B2: Y-Aib-EGT-αMeF-TSD-4Pal-SI-αMeF-LD-Orn-K((2-[2-(2-Amino-ethoxy)-ethoxy]-acetyl)2-(γ-Glu)-CO-(CH2)12-CO2H)AQ-Aib-EFI-(D-Glu)-αMeY-LIEGGK((2-[2-(2-Amino-ethoxy)-e … (peptide)
peptide: B1 peptide
modifications: Aib2, αMeF6, 4Pal10, αMeF13, Orn16, K17(Z1), Aib20, D-Glu24, αMeY25, K31(Z1), C-term NH2; Z1=AEEA2-(γ-Glu)-CO-(CH2)12-CO2H
B3: Y-Aib-EGT-αMeF(2F)-TSD-4Pal-SI-αMeL-LD-Orn-K((2-[2-(2-Amino-ethoxy)-ethoxy]-acetyl)3-(γ-Glu)-CO-(CH2)12-CO2H)AQ-Aib-EFI-(D-Glu)-αMeY-LIEGGK((2-[2-(2-Amino-ethox … (peptide)
peptide: B1 peptide
modifications: Aib2, αMeF(2F)6, 4Pal10, αMeL13, Orn16, K17(Z1), Aib20, D-Glu24, αMeY25, K31(Z1), C-term NH2; Z1=AEEA3-(γ-Glu)-CO-(CH2)12-CO2H
B4: Y-Aib-EGT-αMeF(2F)-TSD-4Pal-SI-αMeL-LD-Orn-K((2-[2-(2-Amino-ethoxy)-ethoxy]-acetyl)2-(εK)-(γ-Glu)-CO-(CH2)12-CO2H)AQ-Aib-EFI-(D-Glu)-αMeY-LIEGGK((2-[2-(2-Amino- … (peptide)
peptide: B1 peptide
modifications: Aib2, αMeF(2F)6, 4Pal10, αMeL13, Orn16, K17(Z1), Aib20, D-Glu24, αMeY25, K31(Z1), C-term NH2; Z1=AEEA2-(εK)-(γ-Glu)-CO-(CH2)12-CO2H
B5: Y-Aib-EGT-αMeF-TSD-αMeF-SI-αMeL-LD-Orn-K((2-[2-(2-Amino-ethoxy)-ethoxy]-acetyl)2-(γ-Glu)-CO-(CH2)12-CO2H)AQ-Aib-EFI-(D-Glu)-αMeY-LIEGGK((2-[2-(2-Amino-ethoxy)-e … (peptide)
peptide: B1 peptide
modifications: Aib2, αMeF6, αMeF10, αMeL13, Orn16, K17(Z1), Aib20, D-Glu24, αMeY25, K31(Z1), C-term NH2; Z1=AEEA2-(γ-Glu)-CO-(CH2)12-CO2H
B6: Y-Aib-EGT-αMeF(2F)-TSD-4Pal-SI-αMeL-LD-Orn-K((2-[2-(2-Amino-ethoxy)-ethoxy]-acetyl)-(γ-Glu)-(2-[2-(2-Amino-ethoxy)-ethoxy]-acetyl)-CO-(CH2)12-CO2H)AQ-Aib-EFI-(D … (peptide)
peptide: B1 peptide
modifications: Aib2, αMeF(2F)6, 4Pal10, αMeL13, Orn16, K17(Z1), Aib20, D-Glu24, αMeY25, K31(Z1), C-term NH2; Z1=AEEA-(γ-Glu)-AEEA-CO-(CH2)12-CO2H
B7: Y-Aib-EGT-αMeF(2F)-TSD-4Pal-SI-αMeL-LD-Orn-K((2-[2-(2-Amino-ethoxy)-ethoxy]-acetyl)2-(γ-Glu)-CO-(CH2)12-CO2H)AQ-Aib-EFI-(D-Glu)-αMeY-LIEGGK((2-[2-(2-Amino-ethox … (peptide)
peptide: B1 peptide
modifications: Aib2, αMeF(2F)6, 4Pal10, αMeL13, Orn16, K17(Z1), Aib20, D-Glu24, αMeY25, K31(Z1), C-term NH2; Z1=AEEA2-(γ-Glu)-CO-(CH2)12-CO2H
B8: Y-Aib-EGT-αMeF(2F)-TSD-4Pal-SI-αMeL-LD-Orn-K((2-[2-(2-Amino-ethoxy)-ethoxy]-acetyl)2-(γ-Glu)-(10-(4-carboxyphenoxy)decanoyl))AQ-Aib-EFI-(D-Glu)-αMeY-LIEGGK((2-[ … (peptide)
peptide: B1 peptide
modifications: Aib2, αMeF(2F)6, 4Pal10, αMeL13, Orn16, K17(Z1), Aib20, D-Glu24, αMeY25, K31(Z1), C-term NH2; Z1=AEEA2-(γ-Glu)-(10-(4-carboxyphenoxy)decanoyl)
B9: Y-Aib-EGT-αMeF-TSD-4Pal-SI-αMeL-LD-Orn-K((2-[2-(2-Amino-ethoxy)-ethoxy]-acetyl)2-(γ-Glu)-CO-(CH2)12-CO2H)AQ-Aib-EFI-(D-Glu)-αMeF-LIEGGK((2-[2-(2-Amino-ethoxy)-e … (peptide)
peptide: B1 peptide
modifications: Aib2, αMeF6, 4Pal10, αMeL13, Orn16, K17(Z1), Aib20, D-Glu24, αMeF25, K31(Z1), C-term NH2; Z1=AEEA2-(γ-Glu)-CO-(CH2)12-CO2H
B10: Y-Aib-EGT-αMeF(2F)-TSD-4Pal-SI-αMeL-LD-Orn-K((γ-Glu)-(2-[2-(2-Amino-ethoxy)-ethoxy]-acetyl)2-CO-(CH2)12-CO2H)AQ-Aib-EFI-(D-Glu)-αMeY-LIEGGK((γ-Glu)-(2-[2-(2-Ami … (peptide)
peptide: B1 peptide
modifications: Aib2, αMeF(2F)6, 4Pal10, αMeL13, Orn16, K17(Z1), Aib20, D-Glu24, αMeY25, K31(Z1), C-term NH2; Z1=(γ-Glu)-AEEA2-CO-(CH2)12-CO2H
B11: Y-Aib-EGT-αMeF(2F)-TSD-4Pal-SI-αMeL-LD-Orn-K((εK)-(2-[2-(2-Amino-ethoxy)-ethoxy]-acetyl)2-(γ-Glu)-CO-(CH2)12-CO2H)AQ-Aib-EFI-(D-Glu)-αMeY-LIEGGK((εK)-(2-[2-(2-A … (peptide)
peptide: B1 peptide
modifications: Aib2, αMeF(2F)6, 4Pal10, αMeL13, Orn16, K17(Z1), Aib20, D-Glu24, αMeY25, K31(Z1), C-term NH2; Z1=(εK)-AEEA2-(γ-Glu)-CO-(CH2)12-CO2H
B12: Y-Aib-EGT-αMeF(2F)-TSD-4Pal-SI-αMeL-LD-Orn-K((2-[2-(2-Amino-ethoxy)-ethoxy]-acetyl)2-(γ-Glu)-CO-(CH2)12-CO2H)AQ-Aib-EFI-(D-Glu)-αMeY-LIK((2-[2-(2-Amino-ethoxy)- … (peptide)
peptide: B1 peptide with E28K, K31P
modifications: Aib2, αMeF(2F)6, 4Pal10, αMeL13, Orn16, K17(Z1), Aib20, D-Glu24, αMeY25, K28(Z1), C-term NH2; Z1=AEEA2-(γ-Glu)-CO-(CH2)12-CO2H
B13: Y-Aib-EGT-αMeF(2F)-TSD-4Pal-SK((2-[2-(2-Amino-ethoxy)-ethoxy]-acetyl)2-(γ-Glu)-CO-(CH2)12-CO2H)-αMeL-LD-Orn-K((2-[2-(2-Amino-ethoxy)-ethoxy]-acetyl)2-(γ-Glu)-CO … (peptide)
peptide: B1 peptide with I12K, K31P
modifications: Aib2, αMeF(2F)6, 4Pal10, K12(Z1), αMeL13, Orn16, K17(Z1), Aib20, D-Glu24, αMeY25, C-term NH2; Z1=AEEA2-(γ-Glu)-CO-(CH2)12-CO2H
B14: Y-Aib-EGT-αMeF(2F)-TSD-4Pal-SI-αMeL-LD-Orn-K((2-[2-(2-Amino-ethoxy)-ethoxy]-acetyl)2-(γ-Glu)-CO-(CH2)12-CO2H)AQ-Aib-K((2-[2-(2-Amino-ethoxy)-ethoxy]-acetyl)2-(γ … (peptide)
peptide: B1 peptide with E21K, K31P
modifications: Aib2, αMeF(2F)6, 4Pal10, αMeL13, Orn16, K17(Z1), Aib20, K21(Z1), D-Glu24, αMeY25, C-term NH2; Z1=AEEA2-(γ-Glu)-CO-(CH2)12-CO2H

In one experiment the target is T1, human GIP receptor. Description: SPA competition vs [125I]-GIP, hGIPR membranes. As to the method: The binding buffer contains 25 mM HEPES, pH 7.4, 2.5 mM CaCl₂, 1 mM MgCl₂, 0.1% (w/v) bacitracin, 0.003% (w/v) TWEEN®-20, and Roche Complete™ Protease Inhibitors without EDTA. […] Plates are sealed and mixed on a plate shaker (setting 6) for 1 minute and read with a PerkinElmer Trilux MicroBeta® scintillation counter after 2.5 to 12 hours of incubation/settling time at room temperature.
(§1) Data are analyzed using four-parameter (curve maximum, curve minimum, IC₅₀, Hill slope) nonlinear regression routines (Genedata Screener, version 12.0.4, Genedata AG, Basal, Switzerland). […] Values for Kᵢ are reported as the geometric mean, with error expressed as the standard error of the mean (SEM) and n is equal to the number of independent replicates (determined in assays performed on different days). Geometric Means are calculated as follows: […]
For orientation: Ki means a measure of affinity in units of concentration, obtained from inhibition or displacement. A lower Ki goes with tighter binding. B1 came in with a Ki of 59.5 pM.
On the same count and under the same terms, next, B2: 68.3 pM.
The same measure, in the same setting: next, B3: 65.3 pM; B4: 131 pM; B5: 89.1 pM.
On the same count and under the same terms, under B6 stands 92 pM; under B7, 88 pM; under B8, 44.6 pM.
In the case of B9, the Ki was found to be 62.1 pM.
On the same count and under the same terms, next, B10: 108 pM; B11: 171 pM; B12: 64.9 pM.
B13 displayed a Ki of 97.2 pM.
Still for that read-out and setting: under B14 stands 62.9 pM.

Another experiment deals with T2, human GLP-1 receptor (human, UniProt P43220 24-463).
T2 construct: whole, on cells; also called hGLP-1R; human glucagon-like peptide-1 receptor
Kind of experiment: SPA competition vs [125I]-GLP-1, hGLP-1R membranes. As to the method:
The binding buffer contains 25 mM HEPES, pH 7.4, 2.5 mM CaCl₂, 1 mM MgCl₂, 0.1% (w/v) bacitracin, 0.003% (w/v) TWEEN®-20, and Roche Complete™ Protease Inhibitors without EDTA.
as §1
Molecule B1 registered a Ki of 3080 pM.
Same read-out and setting: next, B2: 6100 pM.
Same read-out and setting: next, B3: 2660 pM; B4: 2810 pM.
On the same count and under the same terms, under B5 stands 6900 pM; under B6, 2500 pM.
In turn, B7 showed a Ki of 2330 pM.
Regarding B9, the inhibition constant (Ki) was 3670 pM.
The molecule B10 showed a Ki of 2060 pM.
On the same count and under the same terms, under B11 stands 2220 pM.
Still for that read-out and setting: under B12 stands 3180 pM; under B13, 3010 pM.
Regarding B14, the Ki stood at 2110 pM.
